In paper PMC9704045:
pKd: −log10 of the molar value. Where two headings read alike, the source gives them in different places.

Columns and labels:
[1] = target: wild-type HexaPro (D614) SARS-CoV-2 spike trimer (SARS-CoV-2); assay: BLI; Octet Red384; […]; analyte ([…]; HBS-EP+ buffer; 1:1 binding model
[2] = target: wild-type HexaPro (D614) SARS-CoV-2 spike trimer (SARS-CoV-2); assay: as above; remark: listed apart in the source

cilgavimab (AZD1061), full-length IgG (antibody)
pKd [1]: 9.17
pKd [2]: > 12.00
